In this assay the target is Kuenenia stuttgartiensis hydrazine dehydrogenase (Kuenenia stuttgartiensis) (UniProt Q1PW30). Kind of assay: crystal structure.
UniProt Q1PW30, sequence (Q1PW30 33-582): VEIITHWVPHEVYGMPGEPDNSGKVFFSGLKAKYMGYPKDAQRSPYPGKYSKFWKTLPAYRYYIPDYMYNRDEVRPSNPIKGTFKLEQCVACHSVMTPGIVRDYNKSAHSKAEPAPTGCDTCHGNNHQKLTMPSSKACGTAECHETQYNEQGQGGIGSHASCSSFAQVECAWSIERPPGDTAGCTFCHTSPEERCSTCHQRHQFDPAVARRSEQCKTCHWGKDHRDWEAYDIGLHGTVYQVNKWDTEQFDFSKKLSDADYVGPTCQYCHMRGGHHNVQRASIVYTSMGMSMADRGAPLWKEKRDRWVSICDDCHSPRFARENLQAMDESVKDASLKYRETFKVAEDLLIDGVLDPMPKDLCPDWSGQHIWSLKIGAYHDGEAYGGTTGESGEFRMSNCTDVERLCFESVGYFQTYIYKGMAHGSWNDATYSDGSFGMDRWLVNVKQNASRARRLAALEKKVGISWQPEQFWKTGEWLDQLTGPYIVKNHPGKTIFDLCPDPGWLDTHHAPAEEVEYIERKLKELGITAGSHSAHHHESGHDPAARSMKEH

In turn, “Kustc1130, endogenous, co-purified with K. stuttgartiensis HDH (from UniProt Q1PW30 33-582) (natural protein)” gave a stoichiometry N (copies per assembly of 24 HDH monomers) of 12.

Source of the values: PMC6469936.
